Test results: US20190000885A1 (GENERAL HOSPITAL, published 2019)

Target: T1, RNase/ANG inhibitor 1 (RNH1), endogenous protein in sorted mouse LKS cells and myeloid-restricted progenitors (mouse, UniProt Q91VI7 1-456)
T1 sequence (looked up): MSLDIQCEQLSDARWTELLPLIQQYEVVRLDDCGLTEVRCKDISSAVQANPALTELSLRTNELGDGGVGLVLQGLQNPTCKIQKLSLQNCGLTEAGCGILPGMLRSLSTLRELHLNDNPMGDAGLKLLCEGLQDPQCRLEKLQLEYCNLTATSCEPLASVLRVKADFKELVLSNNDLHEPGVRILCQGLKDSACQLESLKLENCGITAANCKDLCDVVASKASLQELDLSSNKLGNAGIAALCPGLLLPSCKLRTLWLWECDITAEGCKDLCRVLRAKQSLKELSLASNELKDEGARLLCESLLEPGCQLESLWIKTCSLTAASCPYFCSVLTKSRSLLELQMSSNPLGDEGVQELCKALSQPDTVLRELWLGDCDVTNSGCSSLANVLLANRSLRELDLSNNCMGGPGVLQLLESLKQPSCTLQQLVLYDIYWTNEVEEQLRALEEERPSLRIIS
Assay: double immunofluorescence and acceptor-photobleaching FRET (AF488 donor, AF555 acceptor) on fixed sorted mouse cells
Procedure: For ANG/RNH1 localization, cells were stained with an in-house made mouse ANG-specific C527 monoclonal antibody (10 μg/ml) and R127 rabbit pAb of RNH1 (5 μg/ml), followed with AF488-conjugated rabbit anti-mouse (Thermo Scientific A11059, 1:600 dilution) and AF555-conjugated goat anti-rabbit (Thermo Scientific A21428, 1:600 dilution). Appropriate isotype controls were used at the same concentration. Images were acquired using Nikon A1R confocal microscopy.
FRET was performed using the acceptor photo-bleaching method, as previously described (Pizzo et al., 2013). Briefly, AF488 was used as the donor and AF555 as the acceptors. Signals were photobleached to less than 10% of the initial fluorescent measurement. ROI measurements from LKS cells and myeloid-restricted progenitors were taken from 10 individual cells. FRET efficiency was calculated using the formula […], where ID and IDA are fluorescence intensities before and after photobleaching, respectively. FRET was performed using Leica SP2 confocal microscopy.
The exact subcellular compartment where tiRNA is produced by ANG is currently unknown, but it has been shown that tiRNA production is correlated to SG localization of ANG in stressed cells (Pizzo et al., 2013). […]

binding result: binds
B1: Angiogenin (ANG), endogenous mouse protein in sorted LKS cells and myeloid-restricted progenitors (enzyme, UniProt P21570 25-145, looked up)
chain: QDDSRYTKFLTQHHDAKPKGRDDRYCERMMKRRSLTSPCKDVNTFIHGNKSNIKAICGANGSPYRENLRMSKSPFQVTTCKHTGGSPRPPCQYRASAGFRHVVIACENGLPVHFDESFFSL
notes: Endogenous intracellular protein, not the recombinant ANG preparation; also called ribonuclease 5; RNase5
